We go through 1 molecule from patent US20260345776 (published 2026).

Assay [1] has as its target T1, FOLR1 (human, UniProt P15328). Put plainly: BLI, 25C.
The target in assay [2] is T1, FOLR1. Nature of the assay: FACS, FOLR+ KB cells.

T1 sequence (P15328 25-234): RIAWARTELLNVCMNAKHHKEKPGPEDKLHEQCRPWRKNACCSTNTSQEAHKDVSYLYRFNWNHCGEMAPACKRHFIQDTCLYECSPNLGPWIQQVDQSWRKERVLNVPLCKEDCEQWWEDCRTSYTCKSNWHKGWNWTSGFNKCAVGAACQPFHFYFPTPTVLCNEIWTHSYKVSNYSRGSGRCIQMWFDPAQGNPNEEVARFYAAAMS

B1: b-SpyTag003(D2)-K(folate) (peptide)
chain: RGVPHIVMVDAYKRYKG
modifications: biotinylated; two D-arginine substitutions; additional C-terminal Lys conjugated to folate (folate is the FOLR1-binding moiety)
For the molecule B1, the dissociation constant Kd with FOLR1 [1] was 0.345 nM; with FOLR1 [2], 16.1 nM.
